Assay results reported in US20260130997A1 (BEAM THERAPEUTICS, published 2026).

How the values were obtained:
[1] = molecular target: T1, mutant CD45 D1-D2 protein N263G, T264A (Homo sapiens, UniProt P08575 225-394, limits assumed); assay: binding to mutant CD45 D1-D2 protein relative to WT CD45 D1-D2; method not given
T1 chain: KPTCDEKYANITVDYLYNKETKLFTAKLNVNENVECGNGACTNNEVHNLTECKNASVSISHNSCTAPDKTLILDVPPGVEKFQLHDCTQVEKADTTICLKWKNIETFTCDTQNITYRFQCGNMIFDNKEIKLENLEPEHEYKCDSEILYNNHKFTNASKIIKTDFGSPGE

[2] = molecular target: T2, mutant CD45 D1-D2 protein N263S, T264A (Homo sapiens, UniProt P08575 225-394, limits assumed); assay: as above
T2 chain: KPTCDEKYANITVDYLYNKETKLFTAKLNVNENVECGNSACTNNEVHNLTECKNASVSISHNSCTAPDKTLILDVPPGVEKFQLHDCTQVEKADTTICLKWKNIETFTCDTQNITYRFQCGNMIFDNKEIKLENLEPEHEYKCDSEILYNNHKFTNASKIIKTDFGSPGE

[3] = molecular target: T3, mutant CD45 D1-D2 protein T264A (Homo sapiens, UniProt P08575 225-394, limits assumed); assay: as above
T3 chain: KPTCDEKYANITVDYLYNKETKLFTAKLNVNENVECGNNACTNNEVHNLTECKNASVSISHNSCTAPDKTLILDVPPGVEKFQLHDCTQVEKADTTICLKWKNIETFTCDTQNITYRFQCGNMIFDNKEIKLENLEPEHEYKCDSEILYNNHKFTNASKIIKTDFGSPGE

[4] = molecular target: T4, mutant CD45 D1-D2 protein T266A, N267G (Homo sapiens, UniProt P08575 225-394, limits assumed); assay: as above
T4 chain: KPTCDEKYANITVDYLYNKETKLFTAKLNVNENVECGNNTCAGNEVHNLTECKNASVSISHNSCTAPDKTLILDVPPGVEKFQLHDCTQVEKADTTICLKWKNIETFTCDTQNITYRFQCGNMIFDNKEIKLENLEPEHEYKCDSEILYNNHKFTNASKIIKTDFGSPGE

[5] = molecular target: T5, mutant CD45 D1-D2 protein I283M, H285R (Homo sapiens, UniProt P08575 225-394, limits assumed); assay: as above
T5 chain: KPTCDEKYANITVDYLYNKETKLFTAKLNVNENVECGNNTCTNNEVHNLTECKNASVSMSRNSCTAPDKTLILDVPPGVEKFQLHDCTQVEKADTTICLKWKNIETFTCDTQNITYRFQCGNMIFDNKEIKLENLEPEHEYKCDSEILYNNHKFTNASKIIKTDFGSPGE

[6] = molecular target: T6, purified CD45 protein E259G (Homo sapiens, UniProt P08575 225-394, limits assumed); assay: biosensor; 100 nM mAb030-9 captured with Anti-Human IgG Fc Capture (AHC), 300 nM purified CD45 protein
T6 construct: Purified CD45 variant of the biosensor assay
T6 chain: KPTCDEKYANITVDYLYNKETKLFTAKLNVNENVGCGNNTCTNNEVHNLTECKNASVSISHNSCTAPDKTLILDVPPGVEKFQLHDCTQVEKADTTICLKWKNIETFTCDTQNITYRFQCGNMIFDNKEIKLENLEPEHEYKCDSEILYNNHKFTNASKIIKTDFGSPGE
Protocol: (§1) 300 nM of purified CD45 protein was contacted with the immobilized antibody. At 300 s the biosensor was placed in buffer without purified CD45 protein.

[7] = molecular target: T7, purified CD45 protein N257G (Homo sapiens, UniProt P08575 225-394, limits assumed); assay: as above
T7 construct: Purified CD45 variant of the biosensor assay
T7 chain: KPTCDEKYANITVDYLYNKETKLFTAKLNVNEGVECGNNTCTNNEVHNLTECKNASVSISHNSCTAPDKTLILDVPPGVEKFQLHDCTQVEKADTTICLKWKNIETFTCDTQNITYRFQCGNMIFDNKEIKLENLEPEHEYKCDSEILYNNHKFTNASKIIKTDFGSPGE
Protocol: as §1

[8] = molecular target: T8, purified CD45 protein E256G (Homo sapiens, UniProt P08575 225-394, limits assumed); assay: as above
T8 construct: Purified CD45 variant of the biosensor assay
T8 chain: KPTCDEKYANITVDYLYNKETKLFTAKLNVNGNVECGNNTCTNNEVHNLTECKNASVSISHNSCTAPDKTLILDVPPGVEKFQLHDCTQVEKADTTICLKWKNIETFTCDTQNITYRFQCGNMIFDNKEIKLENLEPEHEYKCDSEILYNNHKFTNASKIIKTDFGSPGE
Protocol: as §1

[9] = molecular target: T9, purified CD45 protein N267S (Homo sapiens, UniProt P08575 225-394, limits assumed); assay: as above
T9 construct: Purified CD45 variant of the biosensor assay
T9 chain: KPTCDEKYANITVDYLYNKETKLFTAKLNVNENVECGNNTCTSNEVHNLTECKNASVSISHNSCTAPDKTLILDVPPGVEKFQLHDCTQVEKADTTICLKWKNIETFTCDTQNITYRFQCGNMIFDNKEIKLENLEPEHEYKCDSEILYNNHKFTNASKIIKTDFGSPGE
Protocol: as §1

[10] = molecular target: T10, purified CD45 protein N267G (Homo sapiens, UniProt P08575 225-394, limits assumed); assay: as above
T10 construct: Purified CD45 variant of the biosensor assay
T10 chain: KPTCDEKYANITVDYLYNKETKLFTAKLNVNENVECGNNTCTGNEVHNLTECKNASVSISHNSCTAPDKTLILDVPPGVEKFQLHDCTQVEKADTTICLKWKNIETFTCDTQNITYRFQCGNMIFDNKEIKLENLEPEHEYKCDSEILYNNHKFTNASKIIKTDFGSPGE
Protocol: as §1

% Mutant Binding [1]: 106% | % Mutant Binding [2]: 122% | % Mutant Binding [3]: 112% | % Mutant Binding [4]: 1.4% | % Mutant Binding [5]: 1% | response [6]: < 0.05 nm | response [7]: < 0.05 nm | response [8]: < 0.05 nm | response [9]: < 0.05 nm | response [10]: < 0.05 nm
B1: mAb U139AGL030-9 (mAb030-9) (antibody, mouse IgG1, kappa, V domains shown)
VH: EVKLLESGGGLVQPGGSLKLSCAASGFDFSRYWMSWVRQAPGKGLEWIGEINPTSSTINFTPSLKDKVFISRDNAKNTLYLQMSKVRSEDTALYYCARGNYYRYGDAMDYWGQGTSVTVSS
VL: DIALTQSPASLAVSLGQRATISCRASKSVSTSGYSYLHWYQQKPGQPPKLLIYLASNLESGVPARFSGSGSGTDFTLNIHPVEEEDAATYYCQHSRELPFTFGSGTKLEIKR
notes: In the biosensor assay the antibody was captured with Anti-Human IgG Fc Capture (AHC); also called mAb30-9; mAb039-9
